Each block holds one substance with its values, some of them ahead of it.
Legend:
Test in all cases: cell-based or functional assay
[1] = target: AA-SR-104 (SR-104), CTLA4 ECD-CTLA4 TM-CD3z ICD
[2] = target: AA-SR-119 (SR-119), CTLA4 ECD-CD28 TM-CD3z ICD
[3] = target: AA-TGFB-021 (TGFB-021), TGF-BR2 ECD-CD28 TM-CD3z ICD
[4] = target: AA-TGFB-007 (TGFB-007), TGF-BR2 ECD-TGFBR2 TM-TGFBR2 truncated ICD (Homo sapiens (Human)) (UniProt P37173)
[5] = target: AA-SR-107 (SR-107), IL10RB ECD-IL10RB TM-CD3z ICD
[6] = target: AA-SR-122 (SR-122), IL10RB ECD-CD28 TM-CD3z ICD
[7] = target: AA-SR-120 (SR-120), Fas ECD-CD28 TM-CD3z ICD
[8] = target: AA-SR-105 (SR-105), Fas ECD-Fas TM-CD3z ICD
[9] = target: AA-SR-102 (SR-102), CD200R ECD-CD200R TM-CD3z ICD
[10] = target: AA-SR-117 (SR-117), CD200R ECD-CD28 TM-CD3z ICD
Sequence of AA-SR-117 (SR-117), CD200R ECD-CD28 TM-CD3z ICD (chain, as listed by the source limits assumed, form in doubt): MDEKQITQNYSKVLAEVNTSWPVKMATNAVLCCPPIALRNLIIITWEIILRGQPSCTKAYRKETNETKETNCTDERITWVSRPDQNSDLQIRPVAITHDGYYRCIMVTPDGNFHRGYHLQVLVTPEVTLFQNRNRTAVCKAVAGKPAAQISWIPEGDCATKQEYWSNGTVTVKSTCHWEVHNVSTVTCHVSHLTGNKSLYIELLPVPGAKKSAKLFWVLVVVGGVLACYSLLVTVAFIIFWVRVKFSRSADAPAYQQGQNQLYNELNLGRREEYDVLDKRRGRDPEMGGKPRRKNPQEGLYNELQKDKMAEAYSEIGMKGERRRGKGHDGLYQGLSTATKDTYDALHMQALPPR

Sequence of AA-SR-122 (SR-122), IL10RB ECD-CD28 TM-CD3z ICD (chain, as listed by the source limits assumed, form in doubt): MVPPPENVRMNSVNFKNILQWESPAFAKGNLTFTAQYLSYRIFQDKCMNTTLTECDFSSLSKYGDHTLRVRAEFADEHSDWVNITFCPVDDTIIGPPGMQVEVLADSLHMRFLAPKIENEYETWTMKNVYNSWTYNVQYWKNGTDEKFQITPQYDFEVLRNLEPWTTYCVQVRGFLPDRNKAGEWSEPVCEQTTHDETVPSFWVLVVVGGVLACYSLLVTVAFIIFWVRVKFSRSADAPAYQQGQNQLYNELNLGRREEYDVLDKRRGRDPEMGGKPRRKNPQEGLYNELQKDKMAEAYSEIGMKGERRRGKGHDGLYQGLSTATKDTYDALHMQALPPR
Sequence of AA-SR-119 (SR-119), CTLA4 ECD-CD28 TM-CD3z ICD (chain, as listed by the source limits assumed, form in doubt): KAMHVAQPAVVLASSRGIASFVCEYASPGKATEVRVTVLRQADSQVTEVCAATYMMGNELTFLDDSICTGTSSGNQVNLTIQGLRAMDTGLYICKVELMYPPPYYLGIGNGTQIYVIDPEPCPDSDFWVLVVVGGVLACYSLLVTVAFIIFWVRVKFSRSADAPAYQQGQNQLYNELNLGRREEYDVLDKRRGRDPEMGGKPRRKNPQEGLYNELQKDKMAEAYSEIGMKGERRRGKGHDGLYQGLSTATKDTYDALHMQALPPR
Sequence of AA-SR-120 (SR-120), Fas ECD-CD28 TM-CD3z ICD (chain, as listed by the source limits assumed, form in doubt): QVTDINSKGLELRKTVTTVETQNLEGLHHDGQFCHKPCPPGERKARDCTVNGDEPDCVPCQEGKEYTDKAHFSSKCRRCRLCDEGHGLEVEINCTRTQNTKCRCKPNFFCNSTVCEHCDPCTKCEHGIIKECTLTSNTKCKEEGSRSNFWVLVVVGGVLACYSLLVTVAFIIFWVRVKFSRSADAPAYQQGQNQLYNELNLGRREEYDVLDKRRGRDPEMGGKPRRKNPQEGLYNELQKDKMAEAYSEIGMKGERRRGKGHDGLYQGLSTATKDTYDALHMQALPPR
Sequence of AA-SR-102 (SR-102), CD200R ECD-CD200R TM-CD3z ICD (chain, as listed by the source limits assumed, form in doubt): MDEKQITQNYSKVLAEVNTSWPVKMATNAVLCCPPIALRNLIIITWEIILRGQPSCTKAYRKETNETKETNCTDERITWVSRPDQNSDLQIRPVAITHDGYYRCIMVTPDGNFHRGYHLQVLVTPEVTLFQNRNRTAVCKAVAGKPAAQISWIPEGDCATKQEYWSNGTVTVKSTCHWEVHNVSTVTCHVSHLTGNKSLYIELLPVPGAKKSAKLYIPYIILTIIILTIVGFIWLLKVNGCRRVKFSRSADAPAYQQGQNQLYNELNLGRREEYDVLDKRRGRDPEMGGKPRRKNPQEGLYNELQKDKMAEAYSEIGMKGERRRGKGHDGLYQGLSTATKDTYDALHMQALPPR
Sequence of AA-SR-107 (SR-107), IL10RB ECD-IL10RB TM-CD3z ICD (chain, as listed by the source limits assumed, form in doubt): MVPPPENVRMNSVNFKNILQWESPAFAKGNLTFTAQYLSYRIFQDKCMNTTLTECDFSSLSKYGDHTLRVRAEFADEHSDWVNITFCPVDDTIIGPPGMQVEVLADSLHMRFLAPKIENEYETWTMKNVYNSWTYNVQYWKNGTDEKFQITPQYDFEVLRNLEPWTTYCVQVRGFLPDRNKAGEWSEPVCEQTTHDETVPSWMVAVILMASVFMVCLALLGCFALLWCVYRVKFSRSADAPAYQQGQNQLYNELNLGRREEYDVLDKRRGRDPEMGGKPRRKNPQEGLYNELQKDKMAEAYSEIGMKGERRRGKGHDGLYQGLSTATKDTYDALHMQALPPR
Sequence of AA-SR-105 (SR-105), Fas ECD-Fas TM-CD3z ICD (chain, as listed by the source limits assumed, form in doubt): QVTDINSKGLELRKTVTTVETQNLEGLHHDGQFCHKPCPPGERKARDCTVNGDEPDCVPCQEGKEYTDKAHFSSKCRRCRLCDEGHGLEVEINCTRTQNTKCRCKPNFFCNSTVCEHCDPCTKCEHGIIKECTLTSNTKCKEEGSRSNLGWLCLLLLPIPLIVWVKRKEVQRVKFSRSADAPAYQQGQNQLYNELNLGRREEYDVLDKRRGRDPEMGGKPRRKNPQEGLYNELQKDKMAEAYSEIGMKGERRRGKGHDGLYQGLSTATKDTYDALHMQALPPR
Sequence of AA-SR-104 (SR-104), CTLA4 ECD-CTLA4 TM-CD3z ICD (chain, as listed by the source limits assumed, form in doubt): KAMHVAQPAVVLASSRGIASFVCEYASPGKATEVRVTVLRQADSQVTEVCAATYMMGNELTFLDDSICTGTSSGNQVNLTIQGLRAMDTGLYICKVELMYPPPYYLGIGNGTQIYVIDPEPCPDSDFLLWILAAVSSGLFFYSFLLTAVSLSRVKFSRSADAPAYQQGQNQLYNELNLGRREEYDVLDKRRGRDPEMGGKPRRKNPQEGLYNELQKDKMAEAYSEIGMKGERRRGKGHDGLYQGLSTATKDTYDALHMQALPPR
Sequence of AA-TGFB-007 (TGFB-007), TGF-BR2 ECD-TGFBR2 TM-TGFBR2 truncated ICD (Homo sapiens (Human)) (P37173 23-199, form in doubt): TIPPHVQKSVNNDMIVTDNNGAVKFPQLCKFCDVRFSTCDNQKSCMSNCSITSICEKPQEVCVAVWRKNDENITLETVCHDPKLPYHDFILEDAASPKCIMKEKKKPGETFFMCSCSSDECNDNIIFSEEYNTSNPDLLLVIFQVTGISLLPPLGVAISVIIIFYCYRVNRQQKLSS
Sequence of AA-TGFB-021 (TGFB-021), TGF-BR2 ECD-CD28 TM-CD3z ICD (chain, as listed by the source limits assumed, form in doubt): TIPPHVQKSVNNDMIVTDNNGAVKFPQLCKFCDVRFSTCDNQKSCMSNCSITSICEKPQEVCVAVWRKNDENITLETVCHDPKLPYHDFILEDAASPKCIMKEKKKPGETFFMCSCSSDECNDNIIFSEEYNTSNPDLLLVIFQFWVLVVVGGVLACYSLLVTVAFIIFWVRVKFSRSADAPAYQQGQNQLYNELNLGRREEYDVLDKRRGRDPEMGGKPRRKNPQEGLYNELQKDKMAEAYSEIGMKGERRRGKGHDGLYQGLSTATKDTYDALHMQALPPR
Sequence of FasL recombinant protein (P48023 134-281 limits assumed): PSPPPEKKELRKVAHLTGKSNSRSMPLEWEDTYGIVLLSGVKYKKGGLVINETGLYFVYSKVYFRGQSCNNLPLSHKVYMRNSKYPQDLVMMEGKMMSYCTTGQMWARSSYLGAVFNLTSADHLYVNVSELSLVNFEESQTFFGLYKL

Substance: anti-TGF-BR2 mAb clone W17055E (antibody)
CD69, fold-change of MFI over no stimulation, High (10 ug/mL) [3]: 88.2 fold | CD69, fold-change of MFI over no stimulation, Low (0.4 ug/mL) [3]: 2.2 fold | CD69, fold-change of MFI over no stimulation, Med. (2 ug/mL) [3]: 25.2 fold | GFP, fold-change of MFI over no stimulation, High (10 ug/mL) [3]: 5 fold | GFP, fold-change of MFI over no stimulation, Low (0.4 ug/mL) [3]: 0.9 fold | GFP, fold-change of MFI over no stimulation, Med. (2 ug/mL) [3]: 2.9 fold | CD69, fold-change of MFI over no stimulation, High (10 ug/mL) [4]: 2 fold | CD69, fold-change of MFI over no stimulation, Low (0.4 ug/mL) [4]: 1.3 fold | CD69, fold-change of MFI over no stimulation, Med. (2 ug/mL) [4]: 1.5 fold | GFP, fold-change of MFI over no stimulation, High (10 ug/mL) [4]: 1 fold | GFP, fold-change of MFI over no stimulation, Low (0.4 ug/mL) [4]: 0.8 fold | GFP, fold-change of MFI over no stimulation, Med. (2 ug/mL) [4]: 0.9 fold

Substance: anti-CD200R mAb clone OX-108 (antibody)
CD69, fold-change of MFI over no stimulation, High (10 ug/mL) [9]: 29.2 fold | CD69, fold-change of MFI over no stimulation, Low (0.4 ug/mL) [9]: 1.3 fold | CD69, fold-change of MFI over no stimulation, Med. (2 ug/mL) [9]: 4.9 fold | GFP, fold-change of MFI over no stimulation, High (10 ug/mL) [9]: 6.8 fold | GFP, fold-change of MFI over no stimulation, Low (0.4 ug/mL) [9]: 0.8 fold | GFP, fold-change of MFI over no stimulation, Med. (2 ug/mL) [9]: 1.4 fold | CD69, fold-change of MFI over no stimulation, High (10 ug/mL) [10]: 8.7 fold | CD69, fold-change of MFI over no stimulation, Low (0.4 ug/mL) [10]: 0.9 fold | CD69, fold-change of MFI over no stimulation, Med. (2 ug/mL) [10]: 1.1 fold | GFP, fold-change of MFI over no stimulation, High (10 ug/mL) [10]: 5.9 fold | GFP, fold-change of MFI over no stimulation, Low (0.4 ug/mL) [10]: 1.1 fold | GFP, fold-change of MFI over no stimulation, Med. (2 ug/mL) [10]: 0.9 fold

Other lines, results leading:

CD69, fold-change of MFI over no stimulation, High (10 ug/mL) [1]: 7.2 fold | CD69, fold-change of MFI over no stimulation, Low (0.4 ug/mL) [1]: 3.1 fold | CD69, fold-change of MFI over no stimulation, Med. (2 ug/mL) [1]: 5.6 fold | GFP, fold-change of MFI over no stimulation, High (10 ug/mL) [1]: 4.3 fold | GFP, fold-change of MFI over no stimulation, Low (0.4 ug/mL) [1]: 2.2 fold | GFP, fold-change of MFI over no stimulation, Med. (2 ug/mL) [1]: 3.8 fold | CD69, fold-change of MFI over no stimulation, High (10 ug/mL) [2]: 6.2 fold | CD69, fold-change of MFI over no stimulation, Low (0.4 ug/mL) [2]: 2.7 fold | CD69, fold-change of MFI over no stimulation, Med. (2 ug/mL) [2]: 4.5 fold | GFP, fold-change of MFI over no stimulation, High (10 ug/mL) [2]: 5.9 fold | GFP, fold-change of MFI over no stimulation, Low (0.4 ug/mL) [2]: 2.6 fold | GFP, fold-change of MFI over no stimulation, Med. (2 ug/mL) [2]: 4.6 fold
Substance: anti-CTLA-4 mAb clone 1003705 (antibody)

CD69, fold-change of MFI over no stimulation, High (10 ug/mL) [5]: 108 fold | CD69, fold-change of MFI over no stimulation, Low (0.4 ug/mL) [5]: 32.2 fold | CD69, fold-change of MFI over no stimulation, Med. (2 ug/mL) [5]: 86.1 fold | GFP, fold-change of MFI over no stimulation, High (10 ug/mL) [5]: 13.8 fold | GFP, fold-change of MFI over no stimulation, Low (0.4 ug/mL) [5]: 2.9 fold | GFP, fold-change of MFI over no stimulation, Med. (2 ug/mL) [5]: 9.3 fold | CD69, fold-change of MFI over no stimulation, High (10 ug/mL) [6]: 115 fold | CD69, fold-change of MFI over no stimulation, Low (0.4 ug/mL) [6]: 70.1 fold | CD69, fold-change of MFI over no stimulation, Med. (2 ug/mL) [6]: 118 fold | GFP, fold-change of MFI over no stimulation, High (10 ug/mL) [6]: 8.2 fold | GFP, fold-change of MFI over no stimulation, Low (0.4 ug/mL) [6]: 6.2 fold | GFP, fold-change of MFI over no stimulation, Med. (2 ug/mL) [6]: 12.5 fold
Substance: anti-IL-10RB mAb clone 90220 (antibody)

CD69, fold-change of MFI over no stimulation, High (10 ug/mL) [7]: 162 fold | CD69, fold-change of MFI over no stimulation, Low (0.4 ug/mL) [7]: 40.5 fold | CD69, fold-change of MFI over no stimulation, Med. (2 ug/mL) [7]: 129 fold | GFP, fold-change of MFI over no stimulation, High (10 ug/mL) [7]: 10.1 fold | GFP, fold-change of MFI over no stimulation, Low (0.4 ug/mL) [7]: 2.4 fold | GFP, fold-change of MFI over no stimulation, Med. (2 ug/mL) [7]: 11.2 fold | CD69, fold-change of MFI over no stimulation, High (10 ug/mL) [8]: 70.2 fold | CD69, fold-change of MFI over no stimulation, Low (0.4 ug/mL) [8]: 8.4 fold | CD69, fold-change of MFI over no stimulation, Med. (2 ug/mL) [8]: 35.7 fold | GFP, fold-change of MFI over no stimulation, High (10 ug/mL) [8]: 7.3 fold | GFP, fold-change of MFI over no stimulation, Low (0.4 ug/mL) [8]: 1 fold | GFP, fold-change of MFI over no stimulation, Med. (2 ug/mL) [8]: 4.6 fold
Substance: FasL recombinant protein (from UniProt P48023 134-281) (ligand)

Source: patent US20260055162A1
